The test system of one data set is cGAS (human). Kind of data set: EMSA. Particulars: 5 mM Mg2+, 20 mM Tris-HCl pH 7.6, 60 mM NaCl, 5 mM MgCl2, 10 ul, 30 min on ice, 80 nM (145/185) or 10 nM (2450/oligo) substrate, 1.5% agarose, 0.2x TBE. (In general: A gel shift assay detects complexes by their altered migration in electrophoresis.)
Data set [1] concerns the target 145-nucleosome ("601" nucleosome core particle: 145 bp Widom 601 DNA with recombinant histone octamer).
For data set [2], the target named is 185-nucleosome (185 bp dsDNA, Widom 601 extended by 20 bp on both ends, with recombinant histone octamer).
The target of data set [3] is 145-nucleosome ("601" nucleosome core particle: 145 bp Widom 601 DNA with recombinant histone octamer). Kind of data set: native gel or EMSA; FAM-labelled nucleosome (0.8 pmol; oligonucleosomes 0.1 pmol) mixed with different amounts of cGAS in 20 mM Tris-HCl pH 7.6, 60 mM NaCl, 5 mM MgCl2, total volume 10 ul; on ice 30 min; 1.5% agarose gel, 0.2x TBE; Kd from percent bound nucleosome against cGAS concentration.

Data set [4] deals with 185-nucleosome (185 bp dsDNA, Widom 601 extended by 20 bp on both ends, with recombinant histone octamer). Described as above.
Data set [5] has as its target Oligonucleosomes (2,450 bp dsDNA reconstituted with recombinant histone octamers). The data set is described as above.

pKd: −log10 of the molar value.

One may read the pKd as the Kd on a negative log10 scale, so that one unit is a factor of ten. Consider 2,450-dsDNA, for which, in the data set on cGAS (human), the pKd was 7.17. Same read-out and setting: as for 145-dsDNA, the figure is 6.46. The same measure, in the same setting: as for 145-nucleosome, the figure is 7.17. Take 145-tailless nucleosome: the negative logarithm of the Kd (pKd) in the data set with cGAS (human) (tailless histones: H4 del1-20, H3 del1-37, H2A del1-15, H2B del1-31) is 7.10.

Substance 185-dsDNA had a pKd with cGAS (human) of 6.40. In the data set on cGAS (human), 185-nucleosome showed a negative-log Kd (pKd) of 6.76. The same measure, in the same setting: as for Oligonucleosomes, the figure is 7.18. Regarding “human cGAS (cGMP-AMP synthase) (from UniProt Q8N884 1-522) (enzyme)”, the amount of cGAMP after 3 h incubation with cGAS, ATP and GTP (UPLC-MS/MS), against that induced by dsDNA (% of that induced by dsDNA) in data set [1] and in data set [2] was 15 throughout. In addition, the initial velocity of cGAMP generation in vitro (UPLC-MS/MS; 2 uM cGAS, ATP, GTP, 37 °C), against that induced by 145-dsDNA (ratio to 145-dsDNA) in data set [1] came out at 0.1. Also, the values for the pKd in data set [3], in data set [4] and in data set [5] were 7.17, 6.76 and 7.18, respectively.

The record behind these values is paper PMC7505961.
